In US20220112288A1 (published 2022):
Changes are numbered by the printed parent chain.

Tests used:
human CD4 on human PBMCs = molecular target: T1, human CD4 on human PBMCs (human, UniProt P01730 26-458); experiment: FACS, clonal hybridoma supernatant on PBMCs
T1 construct: whole, on cells; the CD4-positive gate was set with the control antibodies OKT4 and RPA-T4; also called hCD4

[1] = molecular target: T2, Rhesus macaque CD4-HIS (Acro Biosystems, Cat. CD4-C52H7) (rhesus macaque, UniProt P16003 26-390); experiment: BLI Octet, mAb on anti-mouse Fc sensor, rhesus CD4-HIS 25-100 nM, 1:1 global fit;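 also: purified antibodies captured at 10 µg/mL, rhesus CD4 analyte run as a three-concentration serial dilution, irrelevant antibody as reference control, one kinetic constant set per antibody from global fitting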
T2 construct: Bought reagent; also called Rhesus CD4; rhesus CD4-HIS; not shown: His tag

[2] = molecular target: T3, Recombinant human CD4 (R&D Systems, Cat. 10327-CD) (human, UniProt P01730 26-390, limits assumed); experiment: BLI (Octet Red384), non-clonal supernatant on AMC sensor, 100 nM human CD4, 1:1 local fit;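 also: hybridoma antibodies captured from supernatant, single CD4 concentration as analyte, association and dissociation phases fitted together, giving single-point kinetic estimates per supernatant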
T3 construct: Bought soluble recombinant protein used as analyte at 100 nM; also called huCD4

[3] = molecular target: T4, Recombinant human CD4 (R&D Systems, Cat. 10327-CD) (human, UniProt P01730 26-390, limits assumed); experiment: BLI Octet, non-clonal supernatant on AMC sensor, 100 nM human CD4, 1:1 local fit;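 also: Single-concentration kinetics per supernatant, with the 1:1 model fitted across both the association and dissociation phases of the sensorgram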
T4 construct: Bought reagent; also called huCD4

T2 sequence (P16003 26-390 limits assumed): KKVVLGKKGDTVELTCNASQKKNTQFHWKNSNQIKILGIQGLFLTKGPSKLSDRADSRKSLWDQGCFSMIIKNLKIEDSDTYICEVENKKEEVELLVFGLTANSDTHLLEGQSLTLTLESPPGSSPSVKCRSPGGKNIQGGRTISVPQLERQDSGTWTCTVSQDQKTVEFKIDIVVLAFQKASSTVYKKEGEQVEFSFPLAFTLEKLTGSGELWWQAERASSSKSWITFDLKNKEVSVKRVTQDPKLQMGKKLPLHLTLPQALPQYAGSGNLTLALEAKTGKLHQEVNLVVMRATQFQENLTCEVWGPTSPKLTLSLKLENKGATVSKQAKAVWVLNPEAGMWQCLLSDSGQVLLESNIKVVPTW

B1: 75110_04G02A (antibody, V domains shown)
VH: not shown
VL: DIVMTQSPDSLAVSLGERATINCKSSQSVLYSSNNKNYLAWYQQKPGQPPKLLFYWASARESGVPDRFSGSGSGTDFTLTISSLQAEDVALYYCQQYFGSFPTFGQGTKLEIK
notes: Tested as clonal hybridoma supernatant of an AlivaMab Mouse Kappa antibody (human variable regions, kappa; detected with anti-mouse Fc)
% CD4 Stain (human CD4 on human PBMCs): 38.5% | gMFI of CD4+ (human CD4 on human PBMCs): 187000 gMFI

B2: 75110_03I08A (antibody, V domains shown)
VH: QVQLQESGPGLVKPSETLSLTCTVSGGSISSYYWSWIRQPPGKGLEWIGYIYYSGSTNYNPSLKSRVTISVDTSKNQFSLKLSSVTAADTAVYYCAREGEQWFYGLDVWGQGTTVTVSS
VL: EIVLTQSPGTLSLSPGERATLSCRASQSVSSTYLAWYQQKPGQAPRLLIYGSSSRATGIPDRFSGSGSGTDFTLTISRLEPEDFAVYYCQQYGNSFPITFGQGTRLEIK
notes: as for B1
% CD4 Stain (human CD4 on human PBMCs): 17.8% | gMFI of CD4+ (human CD4 on human PBMCs): 26100 gMFI

B3: 75110_04P08A (antibody, V domains shown)
VH: QVQLQQWGAGLLKPSETLSLTCAVYGGSLSGYYWSWIRQSPGKGLEWIGEINQSGSTNYNPSLKSRVTISVDTSKDQFSLRLTSVTAADTAVYYCTRVLNWFDPWGRGTLVTVSS
VL: DIQMTQSPSSVSASVGDRVTLTCRASQDISNWLAWYQQKPGKAPKLLIYAASSLQSGVPSRFSGSGSGTDFTLTISSLQTEDFATYYCQQANSFPYTFGQGTKLEIK
notes: Tested as antibody purified from AlivaMab Mouse hybridoma supernatant (captured by anti-mouse IgG Fc)
Kd [1]: 60 nM | Response [1]: 0.12 | koff [1]: 0.0091 s⁻¹ | kon [1]: 150000 M⁻¹ s⁻¹

B4: 75110_05B13A (antibody, V domains shown)
VH: QVLLEQWGAGLLKPSETLSLTCAVYGGSFSGYYWTWIRQPPGKGLEWIGEINHRGSTNYNPSLKSRVTISIDTSKNQFSLKVKSVTAADTAMYYCTRPDSNWFDPWGQGTLVTVSS
VL: B3 VL with L21I, Y49F, T80P, Y96L, Q100G, L104V
notes: as for B3
Kd [1]: 4.7 nM | Response [1]: 0.14 | koff [1]: 0.002 s⁻¹ | kon [1]: 420000 M⁻¹ s⁻¹

B5: 75110_03L12A (antibody, V domains shown)
VH: QVQLQQWGAGLLKPSETLSLTCAVYGGSFSGYYWSWIRQPPGKGLEWIGEINHSGSTNYNPSLKSRVTISVDTSENQFSLTLISVTAADTAVYYCVRLINWFDPWGQGTLVTVSS
VL: B3 VL with L21I, Y49F, T80P, E81D, K103N, E105G
notes: as for B1
% CD4 Stain (human CD4 on human PBMCs): 36.8% | gMFI of CD4+ (human CD4 on human PBMCs): 162000 gMFI

B6: 75110_04H17A (antibody, V domains shown)
VH: QVQLQESGPGLVKPSETLSLTCTVSGGSISTYYWSWIRQSAGKGLEWIGRIYTSERPNYNPSLKSRVTMSVDTSKNQFSLKLNSVSAADTAVYYCARELERPYYYGMDVWGQGTTVTVSS
VL: DVQMTQSPSSLSASVGGRVTITCQASQDISNYLNWYQQKPGKAPKLLIYYASNLETGVPSRFSGSGSGTDFTFTISSLQPEDFATYYCQQYDNLPLTFGGGTKVEIK
notes: as for B3
Kd [1]: 1.7 nM | Response [1]: 0.18 | koff [1]: 0.0002 s⁻¹ | kon [1]: 120000 M⁻¹ s⁻¹

B7: 75110_04H17A (antibody, V domains shown)
VH: B6 VH
VL: B6 VL
notes: as for B1
% CD4 Stain (human CD4 on human PBMCs): 28.8% | gMFI of CD4+ (human CD4 on human PBMCs): 151000 gMFI

B8: 75110_03I23A (antibody, V domains shown)
VH: QVQLQESGPGLVKPSETLSLTCTASGGSITSYYWNWIRQPAGKGLEWIGRIYTSGSTNYNPSLKSRVTMSVDTSKNQFSLKLSSVTAADTAVYYCARDPGYSDAFNIWGQGTMVTVSS
VL: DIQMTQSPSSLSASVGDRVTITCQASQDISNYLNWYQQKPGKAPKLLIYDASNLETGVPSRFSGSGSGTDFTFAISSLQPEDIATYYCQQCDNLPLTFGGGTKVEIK
notes: as for B1
% CD4 Stain (human CD4 on human PBMCs): 26.2% | gMFI of CD4+ (human CD4 on human PBMCs): 67900 gMFI

B9: 75110_10O16A (antibody, V domains shown)
VH: EVQLVESGGGLVQPGGSLRLSCAASGFTFSNSDMHWVRQATGKGLEWVSTIGTAGDTYYPGSVKGRFTISRENAKNSLYLQMNSLRAGDTAVYYCARGGLYYYGMDVWGQGTTVTVSS
VL: ENVLTQSPGTLSLSPGERATLSCRASQSVSSSYLAWYQQKPGQAPRLLIYGASSRATGIPDRFSGSGSGTDFTLTISRLEPEDFAVYYCHQFGSSPFTFGPGTKVDIK
notes: Non-clonal AlivaMab Mouse Kappa hybridoma supernatant, captured by anti-mouse IgG Fc (human V regions, mouse Fc); also called 75110_10016A
Kd [2]: < 1 pM | koff [2]: < 1e-07 s⁻¹ | kon [2]: 64800 M⁻¹ s⁻¹

B10: 75110_04F22A (antibody, V domains shown)
VH: B9 VH with N31S, S32Y, M34I, L100Y
VL: B9 VL with N2I, S30Y, H90Q, S94T
notes: as for B1
% CD4 Stain (human CD4 on human PBMCs): 37.7% | gMFI of CD4+ (human CD4 on human PBMCs): 216000 gMFI

B11: 75110_04G16A (antibody, V domains shown)
VH: QVQLQESGPGLVKPSQTLSLTCTVSGDSISSGYYYWSWIRQHPGKGLEWIGYISYSGSTYYNPSLKSRLTISVNTSKNQFSLKLSSLTAADTAVYYCARDRPSNFDAFDIWGQGTMVTVSS
VL: B9 VL with N2I, S30G, S32T, S53F, H90Q, F92Y, F97L
notes: as for B3
Kd [1]: 2.4 nM | Response [1]: 0.27 | koff [1]: 0.00022 s⁻¹ | kon [1]: 92000 M⁻¹ s⁻¹

B12: 75110_04G16A (antibody, V domains shown)
VH: B11 VH
VL: B9 VL with N2I, S30G, S32T, S53F, H90Q, F92Y, F97L
notes: as for B1
% CD4 Stain (human CD4 on human PBMCs): 36.3% | gMFI of CD4+ (human CD4 on human PBMCs): 240000 gMFI

B13: 75110_04P06A (antibody, V domains shown)
VH: B9 VH with S32Y, L100D
VL: B9 VL with N2I, G9D, V29L, S32V, S77N, A85V, H90Q, F92Y
notes: as for B1
% CD4 Stain (human CD4 on human PBMCs): 36.9% | gMFI of CD4+ (human CD4 on human PBMCs): 241000 gMFI

B14: 75110_05F19A (antibody, V domains shown)
VH: B9 VH with S32Y, M34V, A40P, L100Y, Y101D, M105L
VL: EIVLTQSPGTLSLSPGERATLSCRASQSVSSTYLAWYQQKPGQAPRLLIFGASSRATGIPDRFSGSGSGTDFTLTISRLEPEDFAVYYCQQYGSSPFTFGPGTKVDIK
notes: as for B1
% CD4 Stain (human CD4 on human PBMCs): 37.1% | gMFI of CD4+ (human CD4 on human PBMCs): 155000 gMFI

B15: 75110_05K11A (antibody, V domains shown)
VH: B9 VH with N31S, S32Y, A40P, G61A, L100F
VL: B9 VL with N2I, A19V, S31N, S32T, A85V, H90Q, F92H
notes: as for B1
% CD4 Stain (human CD4 on human PBMCs): 38.1% | gMFI of CD4+ (human CD4 on human PBMCs): 112000 gMFI

B16: 75110_04B08A (antibody, V domains shown)
VH: QVQLVESGGGVVQPGRSLRLSCTASGFNFINYGIHWVRQAPGKGLEWVTIIWYDGSKKYYADSVKGRFAISRDNSKNTLYLQMNSLRAEDTAVYYCAREDDWNDGLAYWGQGTLVTVSS
VL: AIQMTQSPSSLSASVGDRVTITCRASQDIRNDLGWYQQKPGKAPNLLIYAASNLQSGVPSRFSGSGSGTDFTLTISSLQPEDFATYYCLQDSNYPRTFGQGTKVEIK
notes: as for B1
% CD4 Stain (human CD4 on human PBMCs): 40.6% | gMFI of CD4+ (human CD4 on human PBMCs): 246000 gMFI

B17: 75110_04K10A (antibody, V domains shown)
VH: EVQLVESGGGLVQPGGSLRLSCAASGFTFSSYWMSWVRQAPGKGLEWVANINQDGSEKYYVDSVKGRFTISRDNAKNSLYLQLNSLRAEDTAMYYCAREGGQWLSLDYWGQGTLVTVSS
VL: DIQMTQSPSSVSASVGDRVTITCRASQGISSWLAWYQQKPGKAPKVLIYGVSSFQSGVPSRFSGSGSGTDFILTISSLQPEDFATYYCQQANSFPWTFGQGTKVEIK
notes: as for B1
% CD4 Stain (human CD4 on human PBMCs): 35.6% | gMFI of CD4+ (human CD4 on human PBMCs): 149000 gMFI

B18: 75110_14P08A (antibody, V domains shown)
VH: QVQLQESGPGLVKSSETLSLTCTDSGDSIRSYYWNWIRQPAGKGLEWIGRIYASGSTNYNPSLKSRVIMSADTSKNRFSLKLSSVTAADTAVYYCARDGGVGDSLDYWGQGTLVTVSS
VL: DIVMTQTPLSLPVTPGEPASISCRSSQSLLDSDDGNTYLDWYLQKPGQSPQLLIYTLSYRASGVPDRFSGSGSGTDFTLKISRVEAEDVGVYYCMQRIEFPFTFGPGTKVDIK
notes: Tested as non-clonal AlivaMab Mouse Kappa hybridoma supernatant, captured by anti-mouse IgG Fc sensor
Kd [3]: 7.47 nM | koff [3]: 0.00134 s⁻¹ | kon [3]: 179000 M⁻¹ s⁻¹

B19: 75110_05E05A (antibody, V domains shown)
VH: QVQLQESGPGLVKPSETLSLTCTVSGGSIGSYYWSWIRQPAGKGLEWIGRIYTSGSTNYNPSLKSRVTMSFDTSKNQFSLKLNSVTAADTAVYYCATDGGVGDSLDYWGQGTLVTVSS
VL: B18 VL with R97H
notes: as for B3
Kd [1]: 2.3 nM | Response [1]: 0.06 | koff [1]: 4.9e-05 s⁻¹ | kon [1]: 21000 M⁻¹ s⁻¹

B20: 75110_05E13A (antibody, V domains shown)
VH: EVQLVESGGDLVKPGGSLRLSCAASGFSFSNAWMSWVRQAPGKGLEWVGRVESKTDGGTTDYAAPVKDRFTISRDDSKYTLYLQMNSLKTEDSAVYYCTIGGGFGLELYGFFDYWGQGTLVTVSS
VL: DIQMTQSPSTLSASVGDRVTITCRASQSISSWLAWYQQKPGKAPMLLIYKASSLESGVPSRFSGSGSGTEFTLTISSLQPDDFATYYCLQYNSYYTFGQGTKLEIK
notes: as for B3
Kd [1]: 6.7 nM | Response [1]: 0.03 | koff [1]: 0.0079 s⁻¹ | kon [1]: 1.2e+06 M⁻¹ s⁻¹

B21: 75110_04D20A (antibody, V domains shown)
VH: QVQLQESGPGLVKPSETLSLTCTVSNGSISDYYWSWIRQPAGKGLEWIGRIYTSGSTNYNPSLKSRITMSVDTSKNQFSLELSSVTAADTAVYYCARELERYYFYGVDVWGQGTTVTVSS
VL: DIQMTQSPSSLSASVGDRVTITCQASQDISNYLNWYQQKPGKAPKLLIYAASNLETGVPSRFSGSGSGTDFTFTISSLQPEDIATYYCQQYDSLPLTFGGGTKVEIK
notes: as for B1
% CD4 Stain (human CD4 on human PBMCs): 33.2% | gMFI of CD4+ (human CD4 on human PBMCs): 241000 gMFI
